The results in this text go back to patent publication US20120277161A1 (INTER K, published 2012).

The target in the first experiment is human ERK2 (human, UniProt P28482 1-360). Briefly: cell-based or functional assay.
human ERK2, sequence (P28482 whole entry): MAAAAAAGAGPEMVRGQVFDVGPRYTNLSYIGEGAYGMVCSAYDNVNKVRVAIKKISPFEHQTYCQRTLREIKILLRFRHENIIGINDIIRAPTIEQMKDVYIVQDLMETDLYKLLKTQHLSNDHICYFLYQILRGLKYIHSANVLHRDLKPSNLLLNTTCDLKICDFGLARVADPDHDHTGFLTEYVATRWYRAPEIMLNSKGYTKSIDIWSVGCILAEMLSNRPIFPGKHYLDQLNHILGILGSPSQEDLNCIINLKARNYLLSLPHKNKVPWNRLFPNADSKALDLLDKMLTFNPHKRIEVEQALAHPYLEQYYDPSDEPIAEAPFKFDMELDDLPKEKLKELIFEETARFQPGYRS
Take RSRARNPLYR [RSRARNPLYR peptide]: the “inhibition of ERK2 activity relative to control, cell-free assay, peptide at 50 µM” value stood at 4 % inhibition.

Another experiment deals with cellular Src tyrosine kinase (c-Src) (human, UniProt P12931 1-536, limits assumed). Kind of experiment: cell-based or functional assay.
As for RSKAKWQTGTNPLYR [RSKAKWQTGTNPLYR peptide], the “% Inhibition of control, c-Src tyrosine kinase activity, cell-free assay, peptide at 50 µM” value (shortened to “% Inhibition … cell-free assay, peptide at 50 µM”) is 44 % inhibition. As to WQTGT [WQTGT peptide], the “% Inhibition … cell-free assay, peptide at 50 µM” value came to 0 % inhibition. For RARAKNPLYK [RARAKNPLYK peptide], the “% Inhibition … cell-free assay, peptide at 50 µM” value is 29 % inhibition. Turning to NPLYR [NPLYR peptide], the “% Inhibition … cell-free assay, peptide at 50 µM” value stood at 0 % inhibition.

As for RSKAKNPLYR [RSKAKNPLYR peptide], the “% Inhibition … cell-free assay, peptide at 50 µM” value is 57 % inhibition. In the case of RSKAK [RSKAK peptide], the “% Inhibition … cell-free assay, peptide at 50 µM” value amounted to 3 % inhibition.

Take RSRARNPLYR [RSRARNPLYR peptide]: the “% Inhibition … cell-free assay, peptide at 50 µM” value was determined as 37 % inhibition. For the molecule KEKLKNPLFK [KEKLKNPLFK peptide], the “% Inhibition … cell-free assay, peptide at 50 µM” value came to 55 % inhibition.
